Laboratory results published in PMC12356973.

Biological target: nsp10 (two [Fe4S4]);nsp16 (SARS-CoV-2;SARS-CoV-2, UniProt P0DTD1;P0DTD1 4254-4392;6799-7096, |)
Experiment: EMSA
Settings: protein: recombinant;recombinant; copies: 1;1; single strand

AUUAAAGGUU (ssRNA, 5' m7Gppp cap (Cap-0), Vaccinia capping system) [Cap-0 RNA (7MeGppp RNA)]: binds.
